# Experimental data: PMC4551322 (Molecular Biology of the Cell, 2015)
# B1: Drp1 K38A (enzyme)
# chain: MEALIPVINKLQDVFNTVGADIIQLPQIVVVGTQSSGASSVLESLVGRDLLPRGTGIVTRRPLILQLVHVSQEDKRKTTGEENGVEAEEWGKFLHTKNKLYTDFDEIRQEIENETERISGNNKGVSPEPIHLKIFSPNVVNLTLVDLPGMTKVPVGDQPKDIELQIRELILRFISNPNSIILAVTAANTDMATSEALKISREVDPDGRRTLAVITKLDLMDAGTDAMDVLMGRVIPVKLGIIGVVNRSQLDINNKKSVTDSIRDEYAFLQKKYPSLANRNGTKYLARTLNRLLMHHIRDCLPELKTRINVLAAQYQSLLNSYGEPVDDKSATLLQLITKFATEYCNTIEGTAKYIETSELCGGARICYIFHETFGRTLESVDPLGGLNTIDILTAIRNATGPRPALFVPEVSFELLVKRQIKRLEEPSLRCVELVHEEMQRIIQHCSNYSTQELLRFPKLHDAIVEVVTCLLRKRLPVTNEMVHNLVAIELAYINTKHPDFADACGLMNNNIEEQRRNRLARELPSAVSRDKVASGGGGVGDGVQEPTTGNWRGMLKTSKAEELLAEEKSKPIPIMPASPQKGHAVNLLDVPVPVARKLSAREQRDCEVIERLIKSYFLIVRKNIQDSVPKAVMHFLVNHVKDTLQSELVGQLYKSSLLDDLLTESEDMAQRRKEAADMLKALQGASQIIAEIRETHLW
# Target: the molecule itself
# Assay: velocity sedimentation assay
protein,measurement,value
B1,binding result,binds
